Data reported in patent publication US20260240908A1 (FRED HUTCHINSON CANCER CENTER, published 2026).

Tests used:
[1] = molecular target: T1, PE- or biotin-conjugated human PD-1 Fc fusion protein (Acrobiosystems) (human, UniProt Q15116 25-167, limits assumed, PE- or biotin-conjugated); assay: flow cytometry, PD-1 Fc staining of transduced Jurkat Nur77-NeonGreen cells
T1 construct: Bought reagent (Acrobiosystems); also called PD-1-Fc-PE; PD-1 Fc chimera; not shown: Fc part of the bought fusion protein
Text: The biotin-conjugated PD-1-Fc protein was counterstained with BV421-conjugated Streptavidin (Invitrogen).
The EGFRt-tag was detected as a surrogate marker for CAR expression for the six constructs (FIGS. 2A and 9). CARs directed against antigens expressed in T cells may at times lead to fratricide and hamper CAR T cell production.

[2] = molecular target: T2, PD-1 on the cell surface (Molt-4 cells; KG PD-1 cells) (UniProt Q15116 25-288, limits assumed); assay: flow cytometry of detectable cell surface PD-1 on Molt-4 cells that co-express the CAR (masking in cis)
T2 construct: whole, on cells; Molt-4 is a human acute lymphoblastic leukemia line; also called PD-1-expressing Molt 4 cells; K562 GFP (KG) PD-1 cells
T2 sequence (Q15116 25-288 limits assumed): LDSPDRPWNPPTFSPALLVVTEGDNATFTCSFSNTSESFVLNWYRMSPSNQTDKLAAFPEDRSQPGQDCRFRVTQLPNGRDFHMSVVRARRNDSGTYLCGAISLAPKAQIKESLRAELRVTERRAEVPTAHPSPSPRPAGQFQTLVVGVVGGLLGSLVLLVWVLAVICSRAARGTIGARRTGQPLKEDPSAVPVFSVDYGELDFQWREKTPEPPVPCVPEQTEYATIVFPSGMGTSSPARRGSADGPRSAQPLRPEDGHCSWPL

T1 sequence (Q15116 25-167 limits assumed): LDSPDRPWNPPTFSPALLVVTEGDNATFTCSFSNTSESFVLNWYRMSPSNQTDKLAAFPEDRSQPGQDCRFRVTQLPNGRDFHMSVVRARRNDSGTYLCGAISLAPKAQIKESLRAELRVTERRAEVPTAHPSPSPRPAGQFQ

binding result [1] | binding result [2] | Binder
no binding | no binding | VH VL S anti-PD-1 CAR BD ΔCD3ζ (other, Residues 1-22 are the GM-CSF signal peptide, left out) QVQLVQSGVEVKKPGASVKVSCKASGYTFANYFMYWVRQAPGQGLEWMGGIAPAAGGAAFNEKFKNRVTLTTDSSTTTAYMELKSLQFDDTAVYYCARADFAFDMGFDYWGQGTTVTVSSASTKGGGGGSGGGGSGGGGSEIVLTQSPATLSLSPGERATLSCRASKGVSTAGFSYLHWYQQKPGQAPRLLIFLASFLESGVPARFSGSGSGTDFTLTISSLEPEDFAVYYCQHARALPLTFGGGTKVEIKRTVAAPSVFIFPPSDEQLKSGTAESKYGPPCPPCPMFWVLVVVGGVLACYSLLVTVAFIIFWVKRGRKKLLYIFKQPFMRPVQTTQEEDGCSCRFPEEEEGGCEL
no binding | no binding | VH VL S anti-PD-1 CAR BD (binding-defective) (other, Residues 1-22 are the GM-CSF signal peptide, left out) QVQLVQSGVEVKKPGASVKVSCKASGYTFANYFMYWVRQAPGQGLEWMGGIAPAAGGAAFNEKFKNRVTLTTDSSTTTAYMELKSLQFDDTAVYYCARADFAFDMGFDYWGQGTTVTVSSASTKGGGGGSGGGGSGGGGSEIVLTQSPATLSLSPGERATLSCRASKGVSTAGFSYLHWYQQKPGQAPRLLIFLASFLESGVPARFSGSGSGTDFTLTISSLEPEDFAVYYCQHARALPLTFGGGTKVEIKRTVAAPSVFIFPPSDEQLKSGTAESKYGPPCPPCPMFWVLVVVGGVLACYSLLVTVAFIIFWVKRGRKKLLYIFKQPFMRPVQTTQEEDGCSCRFPEEEEGGCELRVKFSRSADAPAYQQGQNQLYNELNLGRREEYDVLDKRRGRDPEMGGKPRRKNPQEGLYNELQKDKMAEAYSEIGMKGERRRGKGHDGLYQGLSTATKDTYDALHMQALPPR
